Measurements published in patent publication US20250145701A1.

Experiments:
[1] = target: monkey PD-1 (ACRO, His tag) (monkey) (UniProt B0LAJ3); experiment: ELISA, monkey PD-1-His coated at 1 ug/mL, anti-human IgG Fc detection, OD450
[2] = target: human VEGF (ACRO, His tag) (human) (UniProt P15692); experiment: ELISA, human VEGF-His coated at 50 ng/ml, anti-human IgG Fc detection, OD450; negative control
[3] = target: biotin-labeled human VEGF (ACRO, biotinylated protein) (human) (UniProt P15692); experiment: bridging ELISA: human PD-1-His coated at 1 ug/mL, antibody, then biotinylated human VEGF at 50 ng/ml and streptavidin-HRP, OD450; single-target control
Sequence of biotin-labeled human VEGF (ACRO, biotinylated protein) (human) (P15692 other isoform, or with tags, fused parts or gaps limits assumed): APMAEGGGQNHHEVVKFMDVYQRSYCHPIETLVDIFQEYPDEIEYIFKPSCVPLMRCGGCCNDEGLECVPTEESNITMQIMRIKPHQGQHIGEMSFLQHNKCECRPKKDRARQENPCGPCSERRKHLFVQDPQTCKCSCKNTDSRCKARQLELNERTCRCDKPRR

[4] = target: monkey PD-1 (ACRO, His tag) (monkey) (UniProt B0LAJ3); experiment: ELISA, monkey PD-1-His coated at 1 ug/mL, anti-human IgG Fc detection

Sequence of monkey PD-1 (ACRO, His tag) (monkey) (B0LAJ3 entry or part of it limits assumed, form in doubt): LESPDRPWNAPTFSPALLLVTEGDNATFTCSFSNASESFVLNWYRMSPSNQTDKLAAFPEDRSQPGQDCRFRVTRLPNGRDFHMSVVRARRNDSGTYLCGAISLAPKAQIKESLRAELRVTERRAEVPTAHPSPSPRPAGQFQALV
Sequence of human VEGF (ACRO, His tag) (human) (P15692 other isoform, or with tags, fused parts or gaps limits assumed): as the sequence (P15692 other isoform, or with tags, fused parts or gaps limits assumed) above

TOP OD [1] [OD] | TOP OD [2] [OD] | TOP OD [3] [OD] | EC50 [4] [pM] | Substance
2.99 | 0.048 | 0.048 | 153 | Opdivo (nivolumab) (antibody)
3.08 | – | – | 187 | Keytruda (pembrolizumab) (antibody)
